Experimental data as given in patent US20070031956A1 (VERTEX PHARMACEUTICALS, published 2007).

Target: the molecule itself
Assay: analytical ultracentrifugation (sedimentation velocity), monomer-dimer self-association
Protocol: All sedimentation velocity experiments were performed with the Beckman Coulter Optima XL-I using an An60 Ti rotor and charcoal-filled Epon double-sector cells. […] Experiments were performed at 42,000 rpm for 8 h at 20° C. Radial absorbance scans were collected in continuous scan mode at 280 nm every 10 min at a spacing of 0.001 cm.

B1: Full-length human Pim-1 kinase (residues M1-K313) with N-terminal HexaHis tag and thrombin cleavage site (enzyme)
chain: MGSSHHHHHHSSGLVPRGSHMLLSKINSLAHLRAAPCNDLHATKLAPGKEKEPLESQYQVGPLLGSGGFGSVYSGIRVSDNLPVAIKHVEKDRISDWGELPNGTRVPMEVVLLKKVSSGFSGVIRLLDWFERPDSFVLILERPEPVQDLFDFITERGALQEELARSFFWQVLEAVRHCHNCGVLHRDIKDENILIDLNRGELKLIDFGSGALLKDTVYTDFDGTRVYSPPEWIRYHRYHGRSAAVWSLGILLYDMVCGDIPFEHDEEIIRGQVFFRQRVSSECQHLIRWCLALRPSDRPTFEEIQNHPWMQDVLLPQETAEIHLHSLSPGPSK
modifications: heterogeneous phosphorylation (mixture of species with 0-5 phosphoryl groups): extensively phosphorylated in the HexaHis tag region; Ser261 major site in Pools III and IV; minor sites Ser8, Thr23 and Ser98
notes: Expressed in E. coli and purified by TALON, Superdex 200 and MonoQ; also called Pim-1 protein
Kd: 23 µM
monomer:dimer ratio (dimer share): 20
